For one substance, Relative MFI(%) and Relative MFI (Fold) results are on record in US20160137713A1.

Assay [1] deals with human FcRn on HEK293 cells (human) (UniProt P55899). Put plainly: FACS competition on hFcRn HEK293 cells at pH 6.0; remaining binding of 100 nM Alexa488-labeled hIgG1 (m14) with 1000 nM unlabeled competitor, percent of the tube without competitor.
For assay [2] the target is unchanged. Put plainly: FACS on hFcRn-overexpressing HEK293 cells at pH 7.4, Alexa488 anti-human goat antibody; hIgG1 is the reference of the ratio.
For assay [3] the target is unchanged. As to the kind of experiment: FACS competition on hFcRn HEK293 cells at pH 6.0; remaining binding of 100 nM Alexa488-labeled hIgG1 (m14) with 500 nM unlabeled competitor, percent of the tube without competitor.
For assay [4] the target is unchanged. Put plainly: FACS on hFcRn-overexpressing HEK293 cells at pH 6.0, Alexa488 anti-human goat antibody; hIgG1 is the reference of the ratio.
For assay [5] the target is unchanged. Put plainly: FACS competition on hFcRn HEK293 cells at pH 6.0; remaining binding of 100 nM Alexa488-labeled hIgG1 (m14) with 250 nM unlabeled competitor, percent of the tube without competitor.

human FcRn on HEK293 cells (human), sequence (P55899 24-365, chain 1 of 2): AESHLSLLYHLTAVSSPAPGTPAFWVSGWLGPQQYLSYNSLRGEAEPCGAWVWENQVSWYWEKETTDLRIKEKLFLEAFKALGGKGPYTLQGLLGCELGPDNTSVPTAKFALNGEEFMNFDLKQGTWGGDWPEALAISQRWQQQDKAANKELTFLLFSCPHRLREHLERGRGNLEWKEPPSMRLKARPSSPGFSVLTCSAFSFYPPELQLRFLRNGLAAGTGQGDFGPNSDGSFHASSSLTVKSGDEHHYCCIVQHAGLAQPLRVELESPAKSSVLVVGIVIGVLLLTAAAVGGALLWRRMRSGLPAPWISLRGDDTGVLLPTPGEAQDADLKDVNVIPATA
human FcRn on HEK293 cells (human), sequence (P61769 21-119, chain 2 of 2, further chain): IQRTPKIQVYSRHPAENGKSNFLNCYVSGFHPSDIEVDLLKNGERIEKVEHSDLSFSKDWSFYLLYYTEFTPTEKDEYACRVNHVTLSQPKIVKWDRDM

In assay [1], human IgG1 (antibody) displayed a Relative MFI(%) at 1000nM of 69.1%. In addition, the Relative MFI (Fold) in assay [2] and in assay [4] was 1 fold in each case. This substance also displayed a Relative MFI(%) at 500nM in assay [3] of 69.9%. Moreover, the Relative MFI(%) at 250nM in assay [5] turned out to be 87.4%.
